Reference: publication PMC5769772

Key:
[1] = target: T1, hnRNPF (recombinant) (human, UniProt P52597 1-415); assay: EMSA
T1 sequence: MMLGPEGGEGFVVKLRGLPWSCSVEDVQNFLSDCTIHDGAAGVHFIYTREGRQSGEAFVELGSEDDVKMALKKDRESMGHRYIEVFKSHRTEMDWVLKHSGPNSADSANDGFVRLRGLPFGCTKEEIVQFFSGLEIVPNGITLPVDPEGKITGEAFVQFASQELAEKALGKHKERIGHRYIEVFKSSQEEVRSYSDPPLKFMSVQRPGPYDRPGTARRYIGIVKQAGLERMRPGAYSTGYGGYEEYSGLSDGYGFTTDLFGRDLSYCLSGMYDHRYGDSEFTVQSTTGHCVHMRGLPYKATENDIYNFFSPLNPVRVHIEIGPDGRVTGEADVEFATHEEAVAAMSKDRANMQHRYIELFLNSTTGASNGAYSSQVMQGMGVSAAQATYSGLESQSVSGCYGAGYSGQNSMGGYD

[2] = target: T1, hnRNPF (recombinant); assay: pull-down
[3] = target: T1, hnRNPF (recombinant); assay: EMSA; remark: listed apart in the source

GCUUUGGUGGUGGAAUGGUGCUAUGUGG (structured_RNA) [I-8]: binds [1].

GCUUUGGUGGUGGAAUGGUGCUAUGUGG (structured_RNA) [Biotin-I-8-wt]: binds [2].

GCUUUGAUGAUGAAAUGAUGCUAUGUGG (ssRNA) [I-8 G4m]: no binding [3].
